Results as given in patent US20250027068A1.

target: pooled human IgG (human); test: cell-based or functional assay

Row | Binder | Enzyme Activity Endpoint Assay, Fab′2 [ng/µL] | Enzyme Activity Endpoint Assay, Fc [ng/µL] | Enzyme Activity Endpoint Assay, IgG [ng/µL] | Enzyme Activity Endpoint Assay, scIgG [ng/µL]
1 | VRT-57 (Fc fusion) VTSVWTKGVTPPTDFIKGEDVFHAPYKAGQGWYDITKTFNGKDNLLCGAATAGNMLHWWFDQNKEYIEAYLKKHPEKQKIIFNNQELFDLKAAINTKGSQKNSELFNYFRDKAFPNLSARRLGVFPDLVLDMFINGYYLNVTKTQTTDVNRTYQEKDKRGGIFDAVFTRGVQSKLLTSRHDFKEKGLKEISDLIKQELTEGKALGLSHTYANVRINHVINLWGADFDSDGNLKAIYVTDSDSNASIGMKKYFVGVNSAGKVAISAKEIKEDNIGAQVLGLFTLSTGQDIWNQTNDKTHTCPPCPAPEAAGAPSVFLFPPKPKDTLMISRTPEVTCVVVDVSHEDPEVKFNWYVDGVEVHNAKTKPREEQQNSTYRVVSVLTVLHQDWLNGKEYKCKVSNKALKAPIEKTISKAKGQPREPQVYTLPPSRDELTKNQVSLTCLVKGFYPSDIAVEWESNGQPENNYKTTPPVLDSDGSFFLYSKLTVDKSRWQQGNVFSCSVMHEALHNHYTQKSLSLSPG | 0 | 97 | 903 | 27
2 | VRT-58 (Fc fusion) VTSVWTKGVTPPTDFIKGEDVFHAPYKAGQGWYDITKTFNGKDNLLCGAATAGNMLHWWFDQNKEYIEAYLKKHPEKQKIIFNNQELFDLKAAINTKGSQKNSELFNYFRDKAFPNLSARRLGVFPDLVLDMFINGYYLNVTKTQTTDVNRTYQEKDKRGGIFDAVFTRGVQSKLLTSRHDLKNKGLKEISDLIKQELTEGKALGLSHTYANVRINHVINLWGADFDSDGNLKAIYVTDSDSNASIGMKKYFVGVNSAGKVAISAKEIKEDNIGAQVLGLFTLSTGQDIWNQTNDKTHTCPPCPAPEAAGAPSVFLFPPKPKDTLMISRTPEVTCVVVDVSHEDPEVKFNWYVDGVEVHNAKTKPREEQQNSTYRVVSVLTVLHQDWLNGKEYKCKVSNKALKAPIEKTISKAKGQPREPQVYTLPPSRDELTKNQVSLTCLVKGFYPSDIAVEWESNGQPENNYKTTPPVLDSDGSFFLYSKLTVDKSRWQQGNVFSCSVMHEALHNHYTQKSLSLSPG | 0 | 191 | 527 | 236
3 | VRT-59 (Fc fusion) VTSVWTKGVTPPADFTQGEDVFHAPYVANQGWYDITKTFNGKDNLLCGAATAGNMLHWWFDQNKEYIEAYLKKHPEKQKIIFNNQELFDLKAAINTKGSQKNSELFNYFRDKAFPNLSARRLGVFPDLVLDMFINGYYLNVTKTQTTDVNRTYQEKDKRGGIFDAVFTRGVQSKLLTSRHDLKNKGLKEISDLIKQELTEGKALGLSHTYANVRINHVINLWGADFDSDGNLKAIYVTDSDSNASIGMKKYFVGVNSAGKVAISAKEIKEDNIGAQVLGLFTLSTGQDIWNQTNDKTHTCPPCPAPEAAGAPSVFLFPPKPKDTLMISRTPEVTCVVVDVSHEDPEVKFNWYVDGVEVHNAKTKPREEQQNSTYRVVSVLTVLHQDWLNGKEYKCKVSNKALKAPIEKTISKAKGQPREPQVYTLPPSRDELTKNQVSLTCLVKGFYPSDIAVEWESNGQPENNYKTTPPVLDSDGSFFLYSKLTVDKSRWQQGNVFSCSVMHEALHNHYTQKSLSLSPG | 0 | 157 | 726 | 107
